Biological target: FGF receptor 2b (FGFR2b) naturally expressed on 4MBr-5 rhesus monkey bronchial epithelial cells (rhesus monkey)
Assay: cell-based or functional assay

B1: FGF10 single-point mutant V123I (ligand)
chain: MGSSHHHHHHSSGLVPRGSHMLGQDMVSPEATNSSSSSFSSPSSAGRHVRSYNHLQGDVRWRKLFSFTKYFLKIEKNGKVSGTKKENCPYSILEITSVEIGVVAIKAINSNYYLAMNKKGKLYGSKEFNNDCKLKERIEENGYNTYASFNWQHNGRQMYVALNGKGAPRRGQKTRRKNTSAHFLPMVVHS
ED50, proliferation of lung epithelial 4MBr-5 cells (resazurin): 0.4 ng/mL

B2: FGF10 single-point mutant Q175E (ligand)
chain: MGSSHHHHHHSSGLVPRGSHMLGQDMVSPEATNSSSSSFSSPSSAGRHVRSYNHLQGDVRWRKLFSFTKYFLKIEKNGKVSGTKKENCPYSILEITSVEIGVVAVKAINSNYYLAMNKKGKLYGSKEFNNDCKLKERIEENGYNTYASFNWQHNGREMYVALNGKGAPRRGQKTRRKNTSAHFLPMVVHS
ED50, proliferation of lung epithelial 4MBr-5 cells (resazurin): 0.2 ng/mL

B3: FGF10 single-point mutant N181D (ligand)
chain: MGSSHHHHHHSSGLVPRGSHMLGQDMVSPEATNSSSSSFSSPSSAGRHVRSYNHLQGDVRWRKLFSFTKYFLKIEKNGKVSGTKKENCPYSILEITSVEIGVVAVKAINSNYYLAMNKKGKLYGSKEFNNDCKLKERIEENGYNTYASFNWQHNGRQMYVALDGKGAPRRGQKTRRKNTSAHFLPMVVHS
ED50, proliferation of lung epithelial 4MBr-5 cells (resazurin): 1.6 ng/mL

Source: US20250353888A1 (ENANTIS S R O, published 2025)
